Results on six molecules are retold here after PMC7610778 (Science (New York, N.Y.), 2020).

One series has as its target T1, mCherry-Atg11 (yeast (S. cerevisiae), UniProt Q12527 1-1178).
T1 sequence: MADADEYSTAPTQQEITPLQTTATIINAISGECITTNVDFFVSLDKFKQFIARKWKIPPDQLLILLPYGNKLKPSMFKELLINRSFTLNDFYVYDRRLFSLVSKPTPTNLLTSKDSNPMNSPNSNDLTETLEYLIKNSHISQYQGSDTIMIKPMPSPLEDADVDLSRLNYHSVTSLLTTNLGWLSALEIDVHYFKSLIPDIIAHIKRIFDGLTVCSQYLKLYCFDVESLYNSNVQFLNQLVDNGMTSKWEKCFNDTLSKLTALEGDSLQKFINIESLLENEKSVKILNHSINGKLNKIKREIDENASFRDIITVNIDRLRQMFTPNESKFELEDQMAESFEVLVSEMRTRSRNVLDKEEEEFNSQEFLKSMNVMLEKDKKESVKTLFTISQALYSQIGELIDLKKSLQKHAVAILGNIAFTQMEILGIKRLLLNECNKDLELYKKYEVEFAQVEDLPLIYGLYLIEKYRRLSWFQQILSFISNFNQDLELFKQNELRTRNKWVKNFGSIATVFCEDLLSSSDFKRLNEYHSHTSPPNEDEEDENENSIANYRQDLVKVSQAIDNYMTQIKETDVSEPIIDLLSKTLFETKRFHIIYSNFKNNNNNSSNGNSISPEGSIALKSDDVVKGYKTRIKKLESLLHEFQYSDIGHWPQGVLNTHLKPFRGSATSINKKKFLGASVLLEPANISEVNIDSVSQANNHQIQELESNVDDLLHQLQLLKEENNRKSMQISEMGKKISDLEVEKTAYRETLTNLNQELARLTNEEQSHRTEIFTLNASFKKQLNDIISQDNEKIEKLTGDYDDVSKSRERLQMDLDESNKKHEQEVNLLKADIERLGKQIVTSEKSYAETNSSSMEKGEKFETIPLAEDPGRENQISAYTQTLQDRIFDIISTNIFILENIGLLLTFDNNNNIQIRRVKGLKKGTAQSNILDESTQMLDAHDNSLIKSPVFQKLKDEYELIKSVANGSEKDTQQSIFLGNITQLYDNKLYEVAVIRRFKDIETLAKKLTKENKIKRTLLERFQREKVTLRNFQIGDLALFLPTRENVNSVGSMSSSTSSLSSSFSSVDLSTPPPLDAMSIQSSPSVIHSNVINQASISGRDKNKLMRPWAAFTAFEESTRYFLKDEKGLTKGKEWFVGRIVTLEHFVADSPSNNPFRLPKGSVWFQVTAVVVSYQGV
Kind of series: pull-down.

Series [1] deals with the molecule itself.
Series [2] addresses T2, Atg12–Atg5-Atg16-mCherry complex (yeast (S. cerevisiae), UniProt P38316;Q12380;Q03818, Atg12–Atg5 conjugate | Atg12–Atg5 conjugate).
T2 sequence 1: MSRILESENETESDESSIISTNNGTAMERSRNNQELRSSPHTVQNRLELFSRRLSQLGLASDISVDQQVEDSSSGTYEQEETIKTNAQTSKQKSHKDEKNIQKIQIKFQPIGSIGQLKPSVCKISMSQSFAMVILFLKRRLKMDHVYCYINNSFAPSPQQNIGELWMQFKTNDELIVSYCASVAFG
T2 sequence 2: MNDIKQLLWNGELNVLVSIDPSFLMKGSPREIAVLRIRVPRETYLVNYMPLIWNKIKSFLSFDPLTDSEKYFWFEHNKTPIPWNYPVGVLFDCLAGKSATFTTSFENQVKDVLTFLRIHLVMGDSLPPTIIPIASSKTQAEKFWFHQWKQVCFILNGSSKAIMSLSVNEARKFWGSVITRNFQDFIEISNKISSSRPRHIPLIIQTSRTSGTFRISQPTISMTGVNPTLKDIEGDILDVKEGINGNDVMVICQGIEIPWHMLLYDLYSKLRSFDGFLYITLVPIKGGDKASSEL
T2 sequence 3: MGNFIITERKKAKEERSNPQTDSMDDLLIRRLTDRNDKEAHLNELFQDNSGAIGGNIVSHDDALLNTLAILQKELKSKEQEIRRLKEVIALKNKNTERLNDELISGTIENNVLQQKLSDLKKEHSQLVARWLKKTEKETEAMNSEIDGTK
Put plainly: membrane recruitment to GUVs imaged by microscopy.

A further series concerns the target Atg2-Atg18-CBP complex (yeast (S. cerevisiae), UniProt P53855;P43601). Kind of series: pull-down.
The target of another series is Atg2-mEGFP (yeast (S. cerevisiae), UniProt P53855 1-1592). Kind of series: pull-down.
Chain of Atg2-mEGFP (P53855 whole entry): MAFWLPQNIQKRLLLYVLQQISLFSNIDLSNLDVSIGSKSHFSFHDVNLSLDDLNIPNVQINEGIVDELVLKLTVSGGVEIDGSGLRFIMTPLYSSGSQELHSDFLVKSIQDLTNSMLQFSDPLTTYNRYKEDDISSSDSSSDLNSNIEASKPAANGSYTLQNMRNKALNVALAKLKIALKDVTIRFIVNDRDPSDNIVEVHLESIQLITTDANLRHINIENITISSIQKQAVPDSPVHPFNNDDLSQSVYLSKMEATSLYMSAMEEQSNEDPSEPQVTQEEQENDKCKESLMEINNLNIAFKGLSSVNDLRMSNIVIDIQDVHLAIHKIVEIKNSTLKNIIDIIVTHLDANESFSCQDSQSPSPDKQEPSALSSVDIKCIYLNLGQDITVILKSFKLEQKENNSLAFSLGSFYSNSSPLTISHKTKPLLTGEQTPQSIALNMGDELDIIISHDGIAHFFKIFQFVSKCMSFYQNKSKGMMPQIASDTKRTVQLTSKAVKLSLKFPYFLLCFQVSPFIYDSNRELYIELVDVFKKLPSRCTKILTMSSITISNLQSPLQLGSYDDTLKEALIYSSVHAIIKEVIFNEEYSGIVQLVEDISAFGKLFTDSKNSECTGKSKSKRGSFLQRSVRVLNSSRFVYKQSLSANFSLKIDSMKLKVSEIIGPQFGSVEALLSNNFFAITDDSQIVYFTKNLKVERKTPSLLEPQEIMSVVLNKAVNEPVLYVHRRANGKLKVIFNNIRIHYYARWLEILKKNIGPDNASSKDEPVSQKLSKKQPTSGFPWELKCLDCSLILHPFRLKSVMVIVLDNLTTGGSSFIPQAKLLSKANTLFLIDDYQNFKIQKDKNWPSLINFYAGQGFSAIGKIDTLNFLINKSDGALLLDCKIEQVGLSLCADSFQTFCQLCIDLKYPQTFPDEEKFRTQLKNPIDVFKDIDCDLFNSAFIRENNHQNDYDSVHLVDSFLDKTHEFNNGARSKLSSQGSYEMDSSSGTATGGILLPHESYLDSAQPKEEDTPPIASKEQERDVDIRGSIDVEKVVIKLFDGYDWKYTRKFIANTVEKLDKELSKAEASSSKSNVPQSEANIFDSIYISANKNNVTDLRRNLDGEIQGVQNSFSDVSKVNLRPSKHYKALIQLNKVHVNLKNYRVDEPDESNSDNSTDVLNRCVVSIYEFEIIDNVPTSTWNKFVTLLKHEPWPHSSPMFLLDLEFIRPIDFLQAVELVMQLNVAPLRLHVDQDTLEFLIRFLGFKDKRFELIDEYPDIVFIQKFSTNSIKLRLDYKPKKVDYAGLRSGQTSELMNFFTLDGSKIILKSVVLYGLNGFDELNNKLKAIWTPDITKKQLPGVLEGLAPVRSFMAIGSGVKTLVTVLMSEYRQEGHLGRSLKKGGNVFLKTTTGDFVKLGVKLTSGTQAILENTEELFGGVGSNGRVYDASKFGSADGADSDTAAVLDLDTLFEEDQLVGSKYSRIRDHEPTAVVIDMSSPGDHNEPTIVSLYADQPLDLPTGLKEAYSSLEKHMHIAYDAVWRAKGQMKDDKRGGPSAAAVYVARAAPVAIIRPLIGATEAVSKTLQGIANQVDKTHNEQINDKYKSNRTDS

Chain of Atg2-Atg18-CBP complex (P53855 whole entry, chain 1 of 2): as the sequence (P53855 whole entry) above
Chain of Atg2-Atg18-CBP complex (P43601 whole entry, chain 2 of 2): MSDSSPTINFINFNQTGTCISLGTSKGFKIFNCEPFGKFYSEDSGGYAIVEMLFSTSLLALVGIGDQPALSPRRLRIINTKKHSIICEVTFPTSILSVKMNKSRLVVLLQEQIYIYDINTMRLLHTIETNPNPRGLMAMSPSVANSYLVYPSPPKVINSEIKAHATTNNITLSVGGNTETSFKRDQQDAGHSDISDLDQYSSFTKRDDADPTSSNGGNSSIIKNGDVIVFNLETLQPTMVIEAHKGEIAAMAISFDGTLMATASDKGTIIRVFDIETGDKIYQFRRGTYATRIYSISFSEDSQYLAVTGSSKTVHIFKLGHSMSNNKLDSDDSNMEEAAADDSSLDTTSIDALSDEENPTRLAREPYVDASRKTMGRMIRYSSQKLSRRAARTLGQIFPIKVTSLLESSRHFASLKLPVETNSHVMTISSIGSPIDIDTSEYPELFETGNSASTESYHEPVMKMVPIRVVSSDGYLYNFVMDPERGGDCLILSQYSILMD

B1: Atg19-3D (S390D, S391D, S396D) (natural protein)
chain: MNNSKTNQQMNTSMGYPLTVYDECNKFQLIVPTLDANIMLWCIGQLSLLNDSNGCKHLFWQPNDKSNVRILLNNYDYGHLFKYLQCQRKCSVYIGEGTLKKYNLTISTSFDNFLDLTPSEEKESLCREDAHEDPVSPKAGSEEEISPNSTSNVVVSRECLDNFMKQLLKLEESLNKLELEQKVTNKEPNHRISGTIDIPEDRSELVNFFTELKTVKQLEDVFQRYHDYERLSQECDSKTEIASDHSKKETKIEVEPPNERSLQITMNQRDNSLYFQLFNNTNSVLAGNCKLKFTDAGDKPTTQIIDMGPHEIGIKEYKEYRYFPYALDLEAGSTIEIENQYGEVIFLGKYGSSPMINLRPPSRLSAESLQASQEPFYSFQIDTLPELDDDDIISTDISLSYDGDDNEKALTWEEL
As to B1, the binding result in the series with mCherry-Atg11 is given as “binds”.

B2: Atg9-EGFP in proteoliposomes (Atg9 PLs) (natural protein)
chain: MERDEYQLPNSHGKNTFLSRIFGLQSDEVNPSLNSQEMSNFPLPDIERGSSLLHSTNDSREDVDENDLRVPESDQGTSTEEEDEVDEEQVQAYAPQISDGLDGDHQLNSVTSKENVLETEKSNLERLVEGSTDDSVPKVGQLSSEEEEDNEFINNDGFDDDTPLFQKSKIHEFSSKKSNTIEDGKRPLFFRHILQNNRPQRDTQKLFTSSNAIHHDKDKSANNGPRNINGNQKHGTKYFGSATQPRFTGSPLNNTNRFTKLFPLRKPNLLSNISVLNNTPEDRINTLSVKERALWKWANVENLDIFLQDVYNYYLGNGFYCIILEKILNICTLLFVVFVSTYMGHCVDYSKLPTSHRVSDIIIDKCYSNSITGFTKFFLWMFYFFVILKIVQLYFDVQKLSELQNFYKYLLNISDDELQTLPWQNVIQQLMYLKDQNAMTANVVEVKAKNRIDAHDVANRIMRRENYLIALYNSDILNLSLPIPLFRTNVLTKTLEWNINLCVMGFVFNESGFIKQSILKPSQREFTREELQKRFMLAGFLNIILAPFLVTYFVLLYFFRYFNEYKTSPGSIGARQYTPIAEWKFREYNELYHIFKKRISLSTTLANKYVDQFPKEKTNLFLKFVSFICGSFVAILAFLTVFDPENFLNFEITSDRSVIFYITILGAIWSVSRNTITQEYHVFDPEETLKELYEYTHYLPKEWEGRYHKEEIKLEFCKLYNLRIVILLRELTSLMITPFVLWFSLPSSAGRIVDFFRENSEYVDGLGYVCKYAMFNMKNIDGEDTHSMDEDSLTKKIAVNGSHTLNSKRRSKFTAEDHSDKDLANNKMLQSYVYFMDDYSNSENLTGKYQLPAKKGYPNNEGDSFLNNKYSWRKQFQPGQKPELFRIGKHALGPGHNISPAIYSTRNPGKNWDNNNNGDDIKNGTNNATAKNDDNNGNNDHEYVLTESFLDSGAFPNHDVIDHNKMLNSNYNGNGILNKGGVLGLVKEYYKKSDVGR
Take B2: the binding result with mCherry-Atg11 is given as “binds”.

B3: Atg11 (full length; fluorescent tag of this experiment not told) (natural protein)
chain: MADADEYSTAPTQQEITPLQTTATIINAISGECITTNVDFFVSLDKFKQFIARKWKIPPDQLLILLPYGNKLKPSMFKELLINRSFTLNDFYVYDRRLFSLVSKPTPTNLLTSKDSNPMNSPNSNDLTETLEYLIKNSHISQYQGSDTIMIKPMPSPLEDADVDLSRLNYHSVTSLLTTNLGWLSALEIDVHYFKSLIPDIIAHIKRIFDGLTVCSQYLKLYCFDVESLYNSNVQFLNQLVDNGMTSKWEKCFNDTLSKLTALEGDSLQKFINIESLLENEKSVKILNHSINGKLNKIKREIDENASFRDIITVNIDRLRQMFTPNESKFELEDQMAESFEVLVSEMRTRSRNVLDKEEEEFNSQEFLKSMNVMLEKDKKESVKTLFTISQALYSQIGELIDLKKSLQKHAVAILGNIAFTQMEILGIKRLLLNECNKDLELYKKYEVEFAQVEDLPLIYGLYLIEKYRRLSWFQQILSFISNFNQDLELFKQNELRTRNKWVKNFGSIATVFCEDLLSSSDFKRLNEYHSHTSPPNEDEEDENENSIANYRQDLVKVSQAIDNYMTQIKETDVSEPIIDLLSKTLFETKRFHIIYSNFKNNNNNSSNGNSISPEGSIALKSDDVVKGYKTRIKKLESLLHEFQYSDIGHWPQGVLNTHLKPFRGSATSINKKKFLGASVLLEPANISEVNIDSVSQANNHQIQELESNVDDLLHQLQLLKEENNRKSMQISEMGKKISDLEVEKTAYRETLTNLNQELARLTNEEQSHRTEIFTLNASFKKQLNDIISQDNEKIEKLTGDYDDVSKSRERLQMDLDESNKKHEQEVNLLKADIERLGKQIVTSEKSYAETNSSSMEKGEKFETIPLAEDPGRENQISAYTQTLQDRIFDIISTNIFILENIGLLLTFDNNNNIQIRRVKGLKKGTAQSNILDESTQMLDAHDNSLIKSPVFQKLKDEYELIKSVANGSEKDTQQSIFLGNITQLYDNKLYEVAVIRRFKDIETLAKKLTKENKIKRTLLERFQREKVTLRNFQIGDLALFLPTRENVNSVGSMSSSTSSLSSSFSSVDLSTPPPLDAMSIQSSPSVIHSNVINQASISGRDKNKLMRPWAAFTAFEESTRYFLKDEKGLTKGKEWFVGRIVTLEHFVADSPSNNPFRLPKGSVWFQVTAVVVSYQGV
Usually stoichiometry N stands for a count of units in the complex or per binding partner. On to B3, for which, in series [1], the “stoichiometry N” value was determined as 2.

B4: Atg21 (natural protein)
chain: MKVLQFNQDATCCVVAASSHQISIFNCDPFGKCFEIDTKNSKKKTSNNNGSASNSESRNNEESILITNGSRDRTDAEEEEDNEDNALVTGNILKEGEFVIEMLFSTSLIAIADRGQGLNKGKKLKIVNTKRKCTICEIVFPHEIVDVVMNRKRMCVLLESDQIFIYDISCMKPLETIDLWEDHYKRSQANSFSNASNTGTLEGDSANLNRVATNLLANATQKSVNGSNPSVRTRRNSLRSKIRPRMVLSNDDRSILCFTAYSSPKKNKPNSEALYDVVIYDTLNVTPVNYLNSVHKGNVACLAVSHDGKLLATASDKGTIIRVFHTGVDSDYMSSRSLFKEFRRGTRLCNLYQLAFDKSMTMIGCVGDTDTIHLFKLDDASNSLPGDNSSNGHWNEEEYILASNSNPSMGTPKEIPLSKPRIANYFSKKIKSSIPNQNLSRNFAYITVNESNRSCLGFPDEFPNQVYIASDDGTFSIYSIPSKPGECVLTKNNKFT
As to B4, the binding result in series [2] is on record as “binds”.

B5: Atg12–Atg5-Atg16-GFP complex (complex)
chain 1: MSRILESENETESDESSIISTNNGTAMERSRNNQELRSSPHTVQNRLELFSRRLSQLGLASDISVDQQVEDSSSGTYEQEETIKTNAQTSKQKSHKDEKNIQKIQIKFQPIGSIGQLKPSVCKISMSQSFAMVILFLKRRLKMDHVYCYINNSFAPSPQQNIGELWMQFKTNDELIVSYCASVAFG
chain 2: MNDIKQLLWNGELNVLVSIDPSFLMKGSPREIAVLRIRVPRETYLVNYMPLIWNKIKSFLSFDPLTDSEKYFWFEHNKTPIPWNYPVGVLFDCLAGKSATFTTSFENQVKDVLTFLRIHLVMGDSLPPTIIPIASSKTQAEKFWFHQWKQVCFILNGSSKAIMSLSVNEARKFWGSVITRNFQDFIEISNKISSSRPRHIPLIIQTSRTSGTFRISQPTISMTGVNPTLKDIEGDILDVKEGINGNDVMVICQGIEIPWHMLLYDLYSKLRSFDGFLYITLVPIKGGDKASSEL
chain 3: MGNFIITERKKAKEERSNPQTDSMDDLLIRRLTDRNDKEAHLNELFQDNSGAIGGNIVSHDDALLNTLAILQKELKSKEQEIRRLKEVIALKNKNTERLNDELISGTIENNVLQQKLSDLKKEHSQLVARWLKKTEKETEAMNSEIDGTK
modifications: Atg12–Atg5 conjugate | Atg12–Atg5 conjugate
In the case of B5, in the series with Atg2-Atg18-CBP complex, the binding result was “binds”.

B6: Atg5-mCherry-Atg16(1-46) (complex)
chain 1: MNDIKQLLWNGELNVLVSIDPSFLMKGSPREIAVLRIRVPRETYLVNYMPLIWNKIKSFLSFDPLTDSEKYFWFEHNKTPIPWNYPVGVLFDCLAGKSATFTTSFENQVKDVLTFLRIHLVMGDSLPPTIIPIASSKTQAEKFWFHQWKQVCFILNGSSKAIMSLSVNEARKFWGSVITRNFQDFIEISNKISSSRPRHIPLIIQTSRTSGTFRISQPTISMTGVNPTLKDIEGDILDVKEGINGNDVMVICQGIEIPWHMLLYDLYSKLRSFDGFLYITLVPIKGGDKASSEL
chain 2: MGNFIITERKKAKEERSNPQTDSMDDLLIRRLTDRNDKEAHLNELF
B6: the binding result in the series with Atg2-mEGFP was “binds”.
